Data from publication PMC8219737, “Direct activation of the proton channel by albumin leads to human sperm capacitation and sustained release of inflammatory mediators by neutrophils” (Nature Communications, 2021).

Target: the molecule itself
Assay: smTIRF single-molecule photobleaching (subunit counting); hHv1-G199L-TFP particles at the surface of live HEK293T cells; bleaching steps of TFP counted

B1: hHv1-G199L-TFP (natural protein, human, UniProt Q96D96-1 1-273, looked up)
chain: MATWDEKAVTRRAKVAPAERMSKFLRHFTVVGDDYHAWNINYKKWENEEEEEEEEQPPPTPVSGEEGRAAAPDVAPAPGPAPRAPLDFRGMLRKLFSSHRFQVIIICLVVLDALLVLAELILDLKIIQPDKNNYAAMVFHYMSITILVFFMMEIIFKLFVFRLEFFHHKFEILDAVVVVVSFILDIVLLFQEHQFEALLLLILLRLWRVARIINGIIISVKTRSERQLLRLKQMNVQLAAKIQHLEFSCSEKEQEIERLNKLLRQHGLLGEVN
notes: also used for the patch-clamp (functional) rows of hHv1-G199L; source: HEK293T, transfected, on live cells; not shown: teal fluorescent protein (TFP, via a 13-residue linker), C-terminal, kept
- stoichiometry N: 2 subunits per particle
